From patent US20040253632A1

Columns and labels:
[1] = target: DO11.10 scTCR/murine IgG2b fusion molecule (mouse) (UniProt P01867); assay: sandwich ELISA on supernatant of COS-7 cells co-transfected with both fusions; goat anti-murine kappa capture, anti-murine IgG2b-HRP detection, A450
[2] = target: DO11.10 TCR (endogenous T cell receptor of the DO11.10 T cell hybridoma); assay: cell-based or functional assay
[3] = target: 2B4 TCR (endogenous T cell receptor of the 2B4 T cell hybridoma) (mouse); assay: cell-based or functional assay
[4] = target: DO11.10 TCR (endogenous T cell receptor of the DO11.10 T cell hybridoma); assay: cell-based or functional assay; remark: listed apart in the source
[5] = target: DO11.10 scTCR/murine CD3ζ fusion molecule (membrane-bound, on transfected cells) (mouse) (UniProt P24161); assay: cell-based or functional assay
Chain of UniProt P24161 (P24161 whole entry, the tested form may be a part): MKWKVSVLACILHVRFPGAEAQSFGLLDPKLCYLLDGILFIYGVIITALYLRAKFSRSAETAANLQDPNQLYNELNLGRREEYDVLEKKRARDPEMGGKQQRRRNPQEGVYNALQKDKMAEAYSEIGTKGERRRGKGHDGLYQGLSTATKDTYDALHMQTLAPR

Chain of UniProt P01867 (P01867 other isoform, or with tags, fused parts or gaps): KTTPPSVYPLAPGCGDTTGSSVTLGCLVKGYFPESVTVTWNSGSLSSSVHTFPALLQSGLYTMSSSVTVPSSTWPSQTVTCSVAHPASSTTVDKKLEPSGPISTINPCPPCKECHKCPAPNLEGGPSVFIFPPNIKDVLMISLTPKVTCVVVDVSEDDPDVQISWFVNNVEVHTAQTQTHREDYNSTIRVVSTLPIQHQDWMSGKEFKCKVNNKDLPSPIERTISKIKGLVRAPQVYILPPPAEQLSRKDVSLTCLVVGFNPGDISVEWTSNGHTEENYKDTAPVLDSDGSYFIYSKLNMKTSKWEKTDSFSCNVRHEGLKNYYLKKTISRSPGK

DO11.10 scTCR/murine kappa fusion molecule
absorbance relative to the negative control (fold) [1]: 40 fold

multi-valent scIA^d/OVA-BirA complexes (biotinylated scIA^d/OVA-BirA bound to avidin) (from UniProt P02701 25-152) (peptide-MHC)
IL-2 ELISA value; DO11.10 cells; 31 ng complex/well [2]: 0.554 A450 | IL-2 ELISA value; DO11.10 cells; 62 ng complex/well [2]: 0.744 A450 | IL-2 ELISA value; DO11.10 cells; 125 ng complex/well [2]: 0.916 A450 | IL-2 ELISA value; DO11.10 cells; 500 ng complex/well [2]: 1.6 A450 | IL-2 ELISA value; DO11.10 cells; 1000 ng complex/well [2]: 1.86 A450

monovalent scIA^d/OVA-BirA complexes (monomer, no avidin) (peptide-MHC)
IL-2 ELISA value; DO11.10 cells; 31 ng complex/well [2]: 0.242 A450 | IL-2 ELISA value; DO11.10 cells; 62 ng complex/well [2]: 0.398 A450 | IL-2 ELISA value; DO11.10 cells; 125 ng complex/well [2]: 0.513 A450 | IL-2 ELISA value; DO11.10 cells; 500 ng complex/well [2]: 1.05 A450 | IL-2 ELISA value; DO11.10 cells; 1000 ng complex/well [2]: 1.16 A450

single-chain IE^k linked to PCC 88-104 (scIE^k/PCC) (peptide-MHC)
IL-2 ELISA absorbance; 2B4 T cells; 12.5 ng/well immobilized scIE^k/PCC [3]: 0.054 A450 | IL-2 ELISA absorbance; 2B4 T cells; 25 ng/well immobilized scIE^k/PCC [3]: 0.081 A450 | IL-2 ELISA absorbance; 2B4 T cells; 50 ng/well immobilized scIE^k/PCC [3]: 0.234 A450 | IL-2 ELISA absorbance; 2B4 T cells; 100 ng/well immobilized scIE^k/PCC [3]: 0.413 A450 | IL-2 ELISA absorbance; 2B4 T cells; 200 ng/well immobilized scIE^k/PCC [3]: 0.485 A450 | IL-2 ELISA absorbance; 2B4 T cells; 400 ng/well immobilized scIE^k/PCC [3]: 0.216 A450

single-chain IA^d linked to OVA 323-339 (scIA^d/OVA), monovalent (peptide-MHC)
IL-2 ELISA value; DO11.10 T cells; 7 ng complex/well [4]: 0.236 A405 | IL-2 ELISA value; DO11.10 T cells; 15 ng complex/well [4]: 0.397 A405 | IL-2 ELISA value; DO11.10 T cells; 31 ng complex/well [4]: 0.646 A405 | IL-2 ELISA value; DO11.10 T cells; 62 ng complex/well [4]: 1.03 A405 | IL-2 ELISA value; DO11.10 T cells; 125 ng complex/well [4]: 1.06 A405 | IL-2 ELISA value; DO11.10 T cells; 250 ng complex/well [4]: 0.665 A405 | IL-2 ELISA value; DO11.10 scTCR 2B4 transfectants; 7 ng complex/well [5]: 0.236 A405 | IL-2 ELISA value; DO11.10 scTCR 2B4 transfectants; 15 ng complex/well [5]: 0.397 A405 | IL-2 ELISA value; DO11.10 scTCR 2B4 transfectants; 31 ng complex/well [5]: 0.646 A405 | IL-2 ELISA value; DO11.10 scTCR 2B4 transfectants; 62 ng complex/well [5]: 1.03 A405 | IL-2 ELISA value; DO11.10 scTCR 2B4 transfectants; 125 ng complex/well [5]: 1.06 A405 | IL-2 ELISA value; DO11.10 scTCR 2B4 transfectants; 250 ng complex/well [5]: 1.06 A405 | IL-2 ELISA value; DO11.10 T cells; 12.5 ng complex/well [2]: 0.176 A405 | IL-2 ELISA value; DO11.10 T cells; 25 ng complex/well [2]: 0.209 A405 | IL-2 ELISA value; DO11.10 T cells; 50 ng complex/well [2]: 1.19 A405 | IL-2 ELISA value; DO11.10 T cells; 100 ng complex/well [2]: 3.06 A405 | mean IL-2 absorbance reading of eight DMSO control wells (assay plate 5-2); DO11.10 T cells on 50 ng/well scIA^d/OVA [2]: 2.2 A450
